Laboratory results published in article PMC5645524.

Key:
[1] = molecular target: Actin of the thin filament in human ventricular myocytes (human (endogenous in ventricular myocytes)) (UniProt P68032); assay: autocorrelation function of fluctuations of fluorescence anisotropy (confocal, about 6 molecules); in situ, A-band of isolated EDC-cross-linked myocytes from failing human left ventricles, isometric contraction in contracting solution (5 mM ATP, 0.1 mM CaCl2, pH 7.5); 20 s records, time resolution 10 ms; three-state fit
[2] = molecular target: Actin of the thin filament in human ventricular myocytes (human (endogenous in ventricular myocytes)) (UniProt P68032); assay: autocorrelation function of fluctuations of fluorescence anisotropy (confocal, about 6 molecules); in situ, A-band of isolated EDC-cross-linked myocytes from failing human right ventricles, isometric contraction in contracting solution (5 mM ATP, 0.1 mM CaCl2, pH 7.5); 20 s records, time resolution 10 ms; three-state fit

Ventricular myosin cross-bridge carrying the exchanged fluorescent LC (from UniProt P12883 1-1935; P05976 1-194; P10916 1-166) (complex)
k (DISS) (rate of dissociation of the cross-bridge from the thin filament during contraction) [1]: 2.24
k (DISS) (rate of dissociation of the cross-bridge from the thin filament during contraction) [2]: 2.36
